From patent publication CN114539393A (BEIJING NEUABO XINESCAPE BIOTECHNOLOGY CO LTD, dated 2022) come the findings set out here.

This assay has as its target T1, SARS-CoV2的N蛋白 (SARS-CoV2, UniProt P0DTC9 1-419).
T1 construct: also called 新冠状病毒N蛋白; 2019-新型冠病毒N蛋白
As to the kind of experiment: ELISA, N protein coated at 2 ug/ml, VHH at 10.0 and 1.0 ug/ml, anti-Myc-HRP detection, OD450. On the technique in general: An ELISA detects its analyte on a solid surface through an enzyme-linked reagent.

B1: N2-10单域抗体 (VHH)
VHH: QVQLVESGGGLVQTGGSLGVSCAASGRTFSIYAMGWFRQAPGKEREFVAAISKSGDGKYYADSVKGRFTISRDNAKNTVALQMNSLKFEDTAVYYCVASRTVVSGASPDEYDLWGQGTQVTVSS
notes: also called 单域抗体N2-10; N2-10-PSJF; not shown: c-myc and His6 tags from the pSJF2 vector
In the case of B1, the binding result was “binds”.

B2: N2-8单域抗体 (VHH)
VHH: QVQLVESGGGSVQAGGSLRLSCAASGRTFSIYAMGWFRQAPGKEREFVAAISKSGEGTYYADSVKGRFTISRDNAKNTVALQMNSLKSEDTAVYYCAASRVVVSGLSPSDYAYWGQGTQVTVSS
notes: also called 单域抗体N2-8; N2-8-pSJF2; not shown: c-myc and His6 tags from the pSJF2 vector
B2: the binding result is “binds”.
